Assay results from paper PMC5581740.

Test system: Cc1cn([C@H]2C[C@H](O)[C@@H](COP(=O)(O)OP(=O)(O)O[C@H]3O[C@H](C)[C@H](O)[C@H](N)[C@H]3O)O2)c(=O)[nH]c1=O
Assay: purified protein
Settings: 5 mM N10-formyl-THF, 50 mM HEPPS pH 8.0, 0.20 uM enzyme

Substance: FdtF (Salmonella enterica)
- Km: 100 ± 10 µM
- kcat: 15.5 ± 0.8 s⁻¹
- kcat/Km: 160000 ± 18000 M⁻¹ s⁻¹
